According to article PMC3601010, “The complete N-terminal extension of heparin cofactor II is required for maximal effectiveness as a thrombin exosite 1 ligand” (BMC Biochemistry, 2013):

Tests used:
α-thrombin [1] = molecular target: α-thrombin (UniProt P00734)
[2] = molecular target: Biotinylated HCII 1-75 (human); assay: SPR; BIAcore X, 25°C; biotinylated HCII 1-75 on streptavidin-coated chip; thrombin 0-30 μM flowed at 20 μL/minute in 10 mM HEPES, 150 mM NaCl, 0.005% Tween-20, pH 7.7; one site binding model of plateau responses
α-thrombin [3] = molecular target: α-thrombin (UniProt P00734); remark: listed apart in the source
α-thrombin [4] = molecular target: α-thrombin (UniProt P00734); remark: listed apart in the source
α-thrombin [5] = molecular target: α-thrombin (UniProt P00734); assay: SPR; competition: BIAcore X, 25°C; biotinylated HCII 1-75 on streptavidin-coated chip; peptides combined with 250 nM thrombin immediately before flowing over the chip; Ki from IC50 and the KD of 340 nM
α-thrombin [6] = molecular target: α-thrombin (UniProt P00734); assay: ELISA; competition: HCII 1-75 immobilised on microtiter wells; competitor peptides added with 5 nM α-thrombin; ratio of absorbance with and without competitor; IC50 by linear regression of log-transformed plots

Row | Substance | Kd [2] | concentration required to double the thrombin clotting time of diluted citrated human plasma (α-thrombin [3]) | Ki (α-thrombin [5]) | IC50 (α-thrombin [6]) | other results
1 | Biotinylated HCII 1-75 (domain or fragment) | – | – | – | – | concentration required to double the thrombin clotting time (data not shown) (α-thrombin [1]): 11.7 µM
2 | FPR-ck-thrombin (thrombin inactivated at its active site using D-Phe-L-Pro-L-Arg chloromethylketone) (from UniProt P00734 364-622) (enzyme) | 330 nM | – | – | – | –
3 | HCII 1-75 (recombinant peptide containing the first 75 residues of human heparin cofactor II and a nonapeptide N-terminal MGSH6 tag) (domain or fragment) | – | 13 µM | 2600 nM | 11000 nM | fold reduction of the apparent second-order rate constant of inhibition of 14 nM thrombin by 140 nM plasma-derived HCII with 55 μg/mL standard heparin, 250 μM peptide (Figure 5A) (α-thrombin [4]): 2.8 fold; fold reduction of the apparent second-order rate constant of inhibition of thrombin by plasma-derived HCII with 1.4 μM dermatan sulfate, 250 μM peptide (Figure 5B) (α-thrombin [4]): 7 fold; concentration required to double the thrombin clotting time, unmodified polypeptide compared with the biotinylated one (data not shown) (α-thrombin [1]): 12.8 µM
4 | sulfo-Hir 54-65 (synthetic peptide containing the C-terminal 12 residues of hirudin variant 1, with Tyr63 sulfated) (from UniProt P01050 54-65) | – | 0.15 µM | 54 nM | 140 nM | –
5 | α-thrombin (from UniProt P00734 364-622) (enzyme) | 340 nM | – | – | – | –
